Laboratory results: paper PMC11153131

Target: recombinant LDLR protein, extracellular domain, immobilised on the QCM chip (human) (UniProt P01130)
Assay: quartz crystal microbalance (QCM)

| Substance | Kd [nM] | koff [s⁻¹] | kon [M⁻¹ s⁻¹] |
| --- | --- | --- | --- |
| GP38, a secreted CCHFV glycoprotein (from UniProt Q8JSZ3 248-519) (natural protein) | 180 |  |  |
| Human Fc-tagged CCHFV Gc (Fc fusion) | 3.3 | 5.9e-05 | 13000 |
| unlabelled LDL from human plasma (complex) | 3 | 0.00112 | 255000 |
